For assay [1], the target named is T1, EV-D68 mature virion, strain US/MO/14-18947 (clade B) (enterovirus D68 strain US/MO/14-18947).
T1 chain 1: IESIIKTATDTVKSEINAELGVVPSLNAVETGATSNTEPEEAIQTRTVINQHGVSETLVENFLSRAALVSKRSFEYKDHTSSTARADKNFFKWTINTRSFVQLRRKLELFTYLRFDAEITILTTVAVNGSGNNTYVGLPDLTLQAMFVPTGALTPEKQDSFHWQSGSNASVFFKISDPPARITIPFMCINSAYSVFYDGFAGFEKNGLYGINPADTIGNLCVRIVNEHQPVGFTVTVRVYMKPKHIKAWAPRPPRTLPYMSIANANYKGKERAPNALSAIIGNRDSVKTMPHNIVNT
T1 chain 2: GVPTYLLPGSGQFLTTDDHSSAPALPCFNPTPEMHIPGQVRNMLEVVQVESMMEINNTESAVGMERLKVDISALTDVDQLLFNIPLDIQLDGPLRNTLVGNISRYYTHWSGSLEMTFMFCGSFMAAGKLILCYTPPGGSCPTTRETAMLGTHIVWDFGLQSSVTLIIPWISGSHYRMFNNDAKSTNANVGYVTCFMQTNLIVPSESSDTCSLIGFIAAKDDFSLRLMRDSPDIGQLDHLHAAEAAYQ
T1 chain 3: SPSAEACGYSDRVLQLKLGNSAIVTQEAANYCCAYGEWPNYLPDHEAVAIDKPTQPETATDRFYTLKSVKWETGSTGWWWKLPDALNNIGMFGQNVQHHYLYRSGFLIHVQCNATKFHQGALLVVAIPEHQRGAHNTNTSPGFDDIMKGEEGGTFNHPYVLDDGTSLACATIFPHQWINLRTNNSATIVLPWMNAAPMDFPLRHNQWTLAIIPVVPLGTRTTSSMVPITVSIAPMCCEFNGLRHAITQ
T1 chain 4: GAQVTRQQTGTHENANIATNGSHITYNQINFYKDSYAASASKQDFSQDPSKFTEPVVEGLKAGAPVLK
In words: BLI.

The target in assay [2] is T1, EV-D68 mature virion, strain …. Description: BLI.

B1: human-mouse chimeric MAb 8F12 (antibody, V domains shown)
VH: QVQLQQPGTELVRPGASVKLSCKASGYSFTSYWMNWVKQRPGQGLEWIGMIHPSDSETRLNQRFKDKATLTVDKSSNTAYMQLSSPTSEDSAVYYCAREGYDYDGFAYWGQGTLVTVSA
VL: QIVLTQSPAAMSASPGEKVTMTCSASSSVIYMYWYQQKPGSSPRLLIYDTSNLASGVPVRFSGSGSGTSYSLTISRMEAEDAATYYCQQWSSFPYTFGGGTKLEIK
Take B1: the dissociation rate constant (koff) in assay [1] worked out at 0.0044 s⁻¹.

B2: human-mouse chimeric MAb 2H12 (antibody, V domains shown)
VH: QVQLQQPGAELVMPGASVKMSCKASGYTFTDYWMHWVKQRPGQGLEWIGAIDTSDSYTTYNRKFKGKATLTVDESSSTAYMQLISLTSEDSAVYYCARGGGGNSPFAYWGQGTLVTVSA
VL: DIQMTQSPSSLSASLGERVSLTCRASQDIGSSLNWLQQEPDGTIKRLIYATSSLDSGVPKRFSGSRSGSDYSLTISSLESEDFVDYYCLQYASFPLTFGAGTKLELK
In the case of B2, in assay [2], binding was characterised by a dissociation constant (Kd) of 2.9 nM. Moreover, the koff in assay [1] was 0.00055 s⁻¹.

The values are drawn from article PMC8131599 (2021).
